PMC2688732
pKd: −log10 of the molar value.

Target: C-reactive protein (CRP) (human) (UniProt P02741)
Experiment: SPR

Sequence of UniProt P02741 (P02741 19-224): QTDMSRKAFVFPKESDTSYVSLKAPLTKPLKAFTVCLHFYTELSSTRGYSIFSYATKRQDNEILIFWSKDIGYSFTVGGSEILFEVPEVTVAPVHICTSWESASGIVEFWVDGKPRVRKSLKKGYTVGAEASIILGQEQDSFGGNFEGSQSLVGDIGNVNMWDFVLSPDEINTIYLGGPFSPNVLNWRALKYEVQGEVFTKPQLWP

Work on “extracellular domain of FcγRIIa (from UniProt P12318 34-204) (receptor)” yielded a pKd of 5.72.
